# Patent US6602854B1, “Branched multimeric Apo A-I agonist compounds” (priority 1997, dated 2003)
# Like-named read-outs stand apart in the source and are kept apart here.
# Columns and labels:
# [1] = Circular dichroism: degree of helicity (free, SUVs, micelles, TFE); details: for % Helicity Free: free in buffer
# In short: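 Far-UV CD (190–260 nm) at 37 °C on 5 μM peptide in 5 mM phosphate pH 7.4, either free, with EPC:Chol 20:1 SUVs (Ri 30 or 50), with lysophosphatidylcholine micelles (Ri 100), or in 90% TFE. Helicity derived from mean residue ellipticity at 222 nm or CONTIN fitting to reference spectra.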
# [2] = Procedure: […] (test sample). Delipidation was carried out by extracting the lipids with an equal volume of 2:1 (v/v) chloroform:methanol.
# The samples were loaded onto a reverse-phase C18 HPLC column and eluted with a linear gradient (25-58% over 33 min.) of acetonitrile (containing 0.1% TFA). Elution profiles were followed by absorbance (220 nm) and radioactivity.
# [3] = tested on: HDL in human plasma; details: for Radioactivity in 300 μl: 50 μl value multiplied by 6
# Procedure: Human plasma (2 ml) was incubated with 20, 40, 60, 80, and 100 μg of ^14C-labeled peptide peptide 4 for 2 hr. at 37° C. The lipoproteins were separated by adjusting the density to 1.21 g/ml and centrifugation in TLA 100.3 rotor at 100,000 rpm (300,000 g) for 36 hr. at 4° C. The top 900 μl (in 300 μl fractions) was taken for the analysis. 50 μl from each 300 μl fraction was counted for radioactivity and 200 μl from each fraction was analyzed by FPLC (Superose 6/Superose 12 combination column).
sequence,measurement,setting,value
PVLDLFRELLNELLEALKQKLK [peptide 4],% helicity in the presence of SUVs,[1],97%
same,% helicity in the presence of TFE,[1],94%
same,% Helicity Bound (micelles),[1]; peptide concentration 0.15 μM,65%
same,% Helicity Free,[1]; peptide concentration 0.15 μM,42%
same,% Helicity Bound (micelles),[1]; peptide concentration 0.40 μM,68%
same,% Helicity Free,[1]; peptide concentration 0.40 μM,58%
same,% Helicity Free,[1]; peptide concentration 2.0 μM,63%
same,% Helicity Bound (micelles),[1]; peptide concentration 5.0 μM,95%
same,% Helicity Free,[1]; peptide concentration 5.0 μM,80%
same,% Helicity TFE,[1]; peptide concentration 50.0 μM,94%
same,He (%) free,"[1]; percent helicity of free, unbound peptide",80%
same,He (%) SUVs,[1]; percent helicity of peptide-SUV complexes,97%
same,He (%) TFE,[1]; percent helicity of peptide-TFE solution,94%
same,He (%) mics,[1]; percent helicity of peptide-micelle complexes,95%
same,stability of the α-helical structure with temperature,"[1]; temperature range of 5-45° C., data not shown",completely stable
same,peptide remaining intact,"[2]; 8 day incubation in human serum, 37° C.",more than 80%
same,"degraded peptide (3 min. peak), share of total radioactivity","[2]; human plasma, 8 days at 37° C.",approximately 15%
same,Radioactivity in 50 μl,"[3]; 20 μg peptide in 2 ml human plasma, Fraction No. 1",1407 cpm
same,Recovery,"[3]; 20 μg peptide, Fraction No. 1",71.6%
same,Radioactivity in 300 μl,"[3]; 20 μg peptide, Fraction No. 1",8442 cpm
same,Radioactivity in 50 μl,"[3]; 20 μg peptide, Fraction No. 2",405 cpm
same,Recovery,"[3]; 20 μg peptide, Fraction No. 2",20.6%
same,Radioactivity in 300 μl,"[3]; 20 μg peptide, Fraction No. 2",2430 cpm
same,Radioactivity in 50 μl,"[3]; 20 μg peptide, Fraction No. 3",152 cpm
same,Recovery,"[3]; 20 μg peptide, Fraction No. 3",7.7%
same,Radioactivity in 300 μl,"[3]; 20 μg peptide, Fraction No. 3",912 cpm
same,Radioactivity in 50 μl,"[3]; 40 μg peptide, Fraction No. 1",2538 cpm
same,Recovery,"[3]; 40 μg peptide, Fraction No. 1",70.4%
same,Radioactivity in 300 μl,"[3]; 40 μg peptide, Fraction No. 1",15228 cpm
same,Radioactivity in 50 μl,"[3]; 40 μg peptide, Fraction No. 2",721 cpm
same,Recovery,"[3]; 40 μg peptide, Fraction No. 2",20%
same,Radioactivity in 300 μl,"[3]; 40 μg peptide, Fraction No. 2",4326 cpm
same,Radioactivity in 50 μl,"[3]; 40 μg peptide, Fraction No. 3",347 cpm
same,Recovery,"[3]; 40 μg peptide, Fraction No. 3",9.6%
same,Radioactivity in 300 μl,"[3]; 40 μg peptide, Fraction No. 3",2082 cpm
same,Radioactivity in 50 μl,"[3]; 60 μg peptide, Fraction No. 1",4492 cpm
same,Recovery,"[3]; 60 μg peptide, Fraction No. 1",75.5%
same,Radioactivity in 300 μl,"[3]; 60 μg peptide, Fraction No. 1",26952 cpm
same,Radioactivity in 50 μl,"[3]; 60 μg peptide, Fraction No. 2",1107 cpm
same,Recovery,"[3]; 60 μg peptide, Fraction No. 2",18.6%
same,Radioactivity in 300 μl,"[3]; 60 μg peptide, Fraction No. 2",6642 cpm
same,Radioactivity in 50 μl,"[3]; 60 μg peptide, Fraction No. 3",354 cpm
same,Recovery,"[3]; 60 μg peptide, Fraction No. 3",5.9%
same,Radioactivity in 300 μl,"[3]; 60 μg peptide, Fraction No. 3",2124 cpm
same,Radioactivity in 50 μl,"[3]; 80 μg peptide, Fraction No. 1",4715 cpm
same,Recovery,"[3]; 80 μg peptide, Fraction No. 1",60%
same,Radioactivity in 300 μl,"[3]; 80 μg peptide, Fraction No. 1",28290 cpm
same,Radioactivity in 50 μl,"[3]; 80 μg peptide, Fraction No. 2",2251 cpm
same,Recovery,"[3]; 80 μg peptide, Fraction No. 2",28.6%
same,Radioactivity in 300 μl,"[3]; 80 μg peptide, Fraction No. 2",13506 cpm
same,Radioactivity in 50 μl,"[3]; 80 μg peptide, Fraction No. 3",851 cpm
same,Recovery,"[3]; 80 μg peptide, Fraction No. 3",11.3%
same,Radioactivity in 300 μl,"[3]; 80 μg peptide, Fraction No. 3",5346 cpm
same,Radioactivity in 50 μl,"[3]; 100 μg peptide, Fraction No. 1",5424 cpm
same,Recovery,"[3]; 100 μg peptide, Fraction No. 1",67.5%
same,Radioactivity in 300 μl,"[3]; 100 μg peptide, Fraction No. 1",32544 cpm
same,Radioactivity in 50 μl,"[3]; 100 μg peptide, Fraction No. 2",1708 cpm
same,Recovery,"[3]; 100 μg peptide, Fraction No. 2",21.2%
same,Radioactivity in 300 μl,"[3]; 100 μg peptide, Fraction No. 2",10248 cpm
same,Radioactivity in 50 μl,"[3]; 100 μg peptide, Fraction No. 3",907 cpm
same,Recovery,"[3]; 100 μg peptide, Fraction No. 3",11.3%
same,Radioactivity in 300 μl,"[3]; 100 μg peptide, Fraction No. 3",5442 cpm
